Test results from patent publication US20080014172A1.

Molecular target: TNFα (R&D Systems cat# 210-TA) (UniProt P01375)
Assay: cell-based or functional assay

Chain of UniProt P01375 (P01375 77-233 limits assumed): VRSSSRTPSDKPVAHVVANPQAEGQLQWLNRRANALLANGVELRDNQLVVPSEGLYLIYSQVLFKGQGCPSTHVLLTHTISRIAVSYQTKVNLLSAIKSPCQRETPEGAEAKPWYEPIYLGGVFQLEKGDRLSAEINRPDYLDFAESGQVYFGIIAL

- IC50 on TNFα-induced binding of Fibronectin-coated beads to BEND cells: 0.769 mg/L
Substance: TNFα binding protein (TBP)
